In paper PMC12056208:
Like-named read-outs stand apart in the source and are kept apart here.

B1: Y-shaped 42-55 DNA (dsDNA)
DNA 1: CGCGCCCAGCTTTCCCAGCTAATAAACTAAAAACTATTATTATGGCCGCACGCGT
DNA 2: ACGCGTGCGGCCATAATAATAGTTTTTAGTTTATTGGGCGCG
modifications: 5' biotin on strand 1
B2: Microhomology DNA for Pol mu (dsDNA)
DNA 1: GGTGCAGCACAGTGC
DNA 2: ACTGTGCTGCACC
DNA 3: GACTGCACGGCAGC
DNA 4: GCCGTGCAGTC

Legend:
[1] = biological target: Ku70;Ku80 (Homo sapiens?;Homo sapiens?, UniProt P12956;P13010 1-609;1-732, |); conditions: protein: recombinant;recombinant; copies: 1;1; label: biotin; fork: 35 bp duplex (1:21-55 with 2:1-35), 5' tail 20 nt on strand 1, 3' tail 7 nt on strand 2; the tail ends (1:1-7, 2:36-42) are also complementary
Sequence of Ku70;Ku80 (P12956 whole entry, chain 1 of 2): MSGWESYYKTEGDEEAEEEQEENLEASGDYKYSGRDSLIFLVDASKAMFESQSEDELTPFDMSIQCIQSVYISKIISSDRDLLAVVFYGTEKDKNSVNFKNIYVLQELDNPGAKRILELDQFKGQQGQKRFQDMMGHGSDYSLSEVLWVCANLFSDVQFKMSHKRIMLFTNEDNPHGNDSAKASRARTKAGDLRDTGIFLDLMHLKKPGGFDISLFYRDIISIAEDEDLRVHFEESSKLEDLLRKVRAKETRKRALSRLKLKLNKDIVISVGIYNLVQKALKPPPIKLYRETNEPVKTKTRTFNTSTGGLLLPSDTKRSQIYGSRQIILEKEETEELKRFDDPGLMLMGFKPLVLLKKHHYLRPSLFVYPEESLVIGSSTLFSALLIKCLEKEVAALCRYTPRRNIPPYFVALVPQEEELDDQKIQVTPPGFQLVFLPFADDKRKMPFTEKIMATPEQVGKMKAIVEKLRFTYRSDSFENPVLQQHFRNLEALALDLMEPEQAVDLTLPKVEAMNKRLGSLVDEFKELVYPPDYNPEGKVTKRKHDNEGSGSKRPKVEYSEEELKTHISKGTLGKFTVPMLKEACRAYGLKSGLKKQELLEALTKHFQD
Sequence of Ku70;Ku80 (P13010 whole entry, chain 2 of 2): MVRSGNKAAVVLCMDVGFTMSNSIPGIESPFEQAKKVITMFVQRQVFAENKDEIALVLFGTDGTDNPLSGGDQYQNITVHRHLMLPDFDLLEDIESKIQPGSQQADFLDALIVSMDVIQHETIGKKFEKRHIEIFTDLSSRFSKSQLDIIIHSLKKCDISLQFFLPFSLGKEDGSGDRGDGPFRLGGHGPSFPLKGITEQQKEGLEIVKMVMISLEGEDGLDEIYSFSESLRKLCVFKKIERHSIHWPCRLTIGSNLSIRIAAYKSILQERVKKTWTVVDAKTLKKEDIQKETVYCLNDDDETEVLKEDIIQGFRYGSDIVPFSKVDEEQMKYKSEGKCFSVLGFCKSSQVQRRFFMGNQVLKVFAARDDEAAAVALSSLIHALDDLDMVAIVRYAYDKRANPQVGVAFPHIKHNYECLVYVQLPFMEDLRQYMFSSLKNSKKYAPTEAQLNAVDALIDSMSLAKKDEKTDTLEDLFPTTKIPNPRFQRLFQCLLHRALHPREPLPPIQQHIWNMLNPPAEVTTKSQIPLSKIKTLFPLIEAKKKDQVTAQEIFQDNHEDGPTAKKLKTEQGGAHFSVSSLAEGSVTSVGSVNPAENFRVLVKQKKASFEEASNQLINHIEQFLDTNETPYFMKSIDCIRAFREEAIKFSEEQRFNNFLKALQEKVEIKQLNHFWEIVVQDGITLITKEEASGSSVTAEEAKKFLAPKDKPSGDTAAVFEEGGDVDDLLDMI

[2] = biological target: T1, Ku70;Ku80;DNA polymerase mu (Homo sapiens?;Homo sapiens?;Homo …, UniProt P12956;P13010;Q9NP87 1-609;1-732;1-494, ||); conditions: protein: recombinant;recombinant;recombinant; copies: 1;1;1; label: biotin; fork: 35 bp duplex (1:21-55 with 2:1-35), 5' tail 20 nt on strand 1, 3' tail 7 nt on strand 2; the tail ends (1:1-7, 2:36-42) are also complementary
T1 sequence (P12956 whole entry, chain 1 of 3): as the sequence (P12956 whole entry, chain 1 of 2) above
T1 sequence (P13010 whole entry, chain 2 of 3): as the sequence (P13010 whole entry, chain 2 of 2) above
T1 sequence (Q9NP87 whole entry, chain 3 of 3): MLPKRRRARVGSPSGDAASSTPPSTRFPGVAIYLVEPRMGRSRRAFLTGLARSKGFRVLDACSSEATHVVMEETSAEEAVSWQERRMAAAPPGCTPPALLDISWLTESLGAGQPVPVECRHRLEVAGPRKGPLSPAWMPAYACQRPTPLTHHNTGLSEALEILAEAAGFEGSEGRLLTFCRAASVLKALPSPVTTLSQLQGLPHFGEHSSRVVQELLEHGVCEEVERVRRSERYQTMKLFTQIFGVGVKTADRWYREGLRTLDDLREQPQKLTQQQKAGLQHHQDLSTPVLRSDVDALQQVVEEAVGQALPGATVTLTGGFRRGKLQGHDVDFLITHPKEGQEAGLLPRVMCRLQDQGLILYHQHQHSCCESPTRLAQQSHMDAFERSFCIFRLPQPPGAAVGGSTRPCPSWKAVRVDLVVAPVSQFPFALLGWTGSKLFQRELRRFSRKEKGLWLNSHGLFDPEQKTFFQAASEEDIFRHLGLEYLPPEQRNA

[3] = biological target: Ku70;Ku80;DNA polymerase lambda (Homo sapiens?;Homo sapiens?;Homo …, UniProt P12956;P13010;Q9UGP5 1-609;1-732;1-575, ||); conditions: protein: recombinant;recombinant;recombinant; copies: 1;1;1; label: biotin; fork: 35 bp duplex (1:21-55 with 2:1-35), 5' tail 20 nt on strand 1, 3' tail 7 nt on strand 2; the tail ends (1:1-7, 2:36-42) are also complementary
Sequence of Ku70;Ku80;DNA polymerase lambda (P12956 whole entry, chain 1 of 3): as the sequence (P12956 whole entry, chain 1 of 2) above
Sequence of Ku70;Ku80;DNA polymerase lambda (P13010 whole entry, chain 2 of 3): as the sequence (P13010 whole entry, chain 2 of 2) above
Sequence of Ku70;Ku80;DNA polymerase lambda (Q9UGP5 whole entry, chain 3 of 3): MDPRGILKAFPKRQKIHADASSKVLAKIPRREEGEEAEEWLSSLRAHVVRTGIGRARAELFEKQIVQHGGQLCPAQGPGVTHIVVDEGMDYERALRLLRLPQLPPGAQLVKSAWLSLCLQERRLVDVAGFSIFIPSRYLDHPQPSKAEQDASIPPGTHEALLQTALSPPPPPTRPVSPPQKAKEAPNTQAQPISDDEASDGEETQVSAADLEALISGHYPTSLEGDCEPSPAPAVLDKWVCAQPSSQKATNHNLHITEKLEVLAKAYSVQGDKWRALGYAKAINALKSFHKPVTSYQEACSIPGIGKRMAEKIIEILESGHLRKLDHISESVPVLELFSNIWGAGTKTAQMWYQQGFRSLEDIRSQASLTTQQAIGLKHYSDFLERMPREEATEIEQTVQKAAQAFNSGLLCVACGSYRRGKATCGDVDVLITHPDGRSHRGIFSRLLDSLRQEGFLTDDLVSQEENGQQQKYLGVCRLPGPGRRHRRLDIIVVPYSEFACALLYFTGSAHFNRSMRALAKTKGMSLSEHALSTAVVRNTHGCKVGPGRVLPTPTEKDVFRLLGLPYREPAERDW

[4] = biological target: T1, Ku70;Ku80;DNA polymerase mu; conditions: protein: recombinant;recombinant;recombinant; copies: 1;1;1; two duplexes: S3/S6 13 bp with 3' overhang GC on S3; S5/S4 11 bp with 3' overhang AGC on S5; GC microhomology between overhangs

Row | Binder | binding result [1] | binding result [2] | binding result [3] | binding result [4]
1 | B1 | binds | binds | binds | 
2 | B2 |  |  |  | binds
